Positions count from the first letter of the chain named.
Key:
[1] = biological target: T1, TPP-2614 (TweakR-ECD-34-68-hIgGFc-His-D47A) (human); assay: ELISA, IgG coated 1 ug/ml, TWEAKR variant 250 ng/ml, anti-HIS HRP (FIG. 6C)
T1 construct: also called D47A TWEAKR mutein
Procedure: Antibodies were coated (1 μg/ml), TWEAKR variant was added at 250 ng/ml, detection via anti-HIS HRP. […] Antibodies were coated (1 μg/ml), TWEAKR variant was added 250 ng/ml, detection via anti-HIS HRP.

[2] = biological target: T2, TWEAKR (TNFRSF12A, FN14), human, on tumor cell lines (human, UniProt Q9NP84 28-129); assay: cell-based or functional assay
[3] = biological target: T2, TWEAKR (TNFRSF12A, FN14), human, on …; assay: FACS, HT29 cells, 10 ug/ml
Procedure: (§1) To determine the binding characteristics of the anti-TWEAKR antibodies on mouse and human cancer cell lines, binding was tested by flow cytometry to a panel of cell lines. […] Cells were suspended at approximately 10⁵ cells/well in FACS buffer (PBS without Ca/Mg, containing 3% FCS, Biochrom). Cells were centrifuged (250 g, 5 min, 4° C.) and supernatant discarded. Cells were resuspended in dilutions of the antibodies of interest (10 μg/ml in 80 μl if not indicated otherwise) in FACS buffer, and incubated on ice for 1 h. […] After incubation for 1 h on ice cells were again washed with cold FACS buffer, resuspended in 1000 FACS buffer and analyzed by flow cytometry using a FACS-Array (BD Biosciences). Results are calculated as Geo Mean of fluorescence detected by the antibody of interest subtracted by background fluorescence as measured by detection with the secondary antibody alone. Values are scored according to the following system: Geo Mean−Geo Mean of secondary antibody alone >10: +, >100: ++, >1000: +++, 10000: ++++, close to category border in ( ).

[4] = biological target: T2, TWEAKR (TNFRSF12A, FN14), human, on …; assay: FACS, SKOV-3 cells, 10 ug/ml
Procedure: as §1

[5] = biological target: T2, TWEAKR (TNFRSF12A, FN14), human, on …; assay: FACS, 786-O cells, 10 ug/ml
Procedure: as §1

[6] = biological target: T3, TPP-2305 (hTNFRSF12Aaa28-80) (Human, UniProt Q9NP84 28-80); assay: SPR (Biacore T100), IgG captured, TPP-2305 injected, 1:1 model
T3 construct: monomeric extracellular domain, bought; also called purified recombinant human TWEAKR protein; soluble monomeric TWEAKR
Procedure: Binding affinities of anti-TWEAKR antibodies were determined by surface plasmon resonance analysis on a Biacore T100 instrument (GE Healthcare Biacore, Inc.). Antibodies were immobilized onto a CM5 sensor chip through an indirect capturing reagent, anti-human IgG(Fc). […] Anti-TWEAKR antibodies were injected at a concentration of 10 μg/ml at 10 μl/min for 10 sec.
Sensorgrams were generated after in-line reference cell correction followed by buffer sample subtraction. The dissociation equilibrium constant (KD) was calculated based on the ratio of association (kₒₙ) and dissociation rated (koff) constants, obtained by fitting sensorgrams with a first order 1:1 binding model.

[7] = biological target: T2, TWEAKR (TNFRSF12A, FN14), human, on …; assay: FACS, A375 cells, 10 ug/ml
Procedure: as §1

[8] = biological target: T2, TWEAKR (TNFRSF12A, FN14), human, on …; assay: cell-based or functional assay; remark: listed apart in the source
[9] = biological target: T2, TWEAKR (TNFRSF12A, FN14), human, on …; assay: FACS, NCI-H322 cells, 10 ug/ml
Procedure: as §1

[10] = biological target: T2, TWEAKR (TNFRSF12A, FN14), human, on …; assay: FACS, WiDr cells, 10 ug/ml
Procedure: as §1

[11] = biological target: T2, TWEAKR (TNFRSF12A, FN14), human, on …; assay: cell-based or functional assay; remark: listed apart in the source
[12] = biological target: TPP-1987 (hTNFRSF12Aaa28-80-S40R-hIgG1-Fc) (human); assay: ELISA, TWEAKR-Fc coated 62 ng/ml, biotin-IgG titrated; + means IC50 1 to 150 pM;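 further: biotinylated IgG binding to immobilized TWEAKR-Fc muteins, detected with Streptavidin-HRP and Amplex Red, IC50 derived from fitted dose-response curves of twofold serial dilutions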
Procedure: (§2) To collect dose-response data, the different TWEAKR-Fc muteins were coated with a low concentration (62 ng/ml) in a 384-well Maxisorb ELISA plate and a serial 2fold dilution of biotinylated IgG starting with a concentration of 100 nM was used as soluble binding partner. Detection was done with Streptavidin-HRP and Amplex Red.
(§3) The dose-response data were fitted and IC50s determined.

[13] = biological target: T4, TPP-599 (HUMAN-TNFRSF12Aaa28-80-hIgG1-Fc) (human); assay: as above
T4 construct: dimeric; also called human TWEAKR Fc; TWEAKR-Fc
Procedure: as §2, §3

[14] = biological target: TPP-1990 (hTNFRSF12Aaa28-80-L65Q-hIgG1-Fc) (human); assay: as above
Procedure: as §2, §3

[15] = biological target: TPP-1986 (hTNFRSF12Aaa28-80-T33Q-hIgG1-Fc) (human); assay: as above
Procedure: as §2, §3

[16] = biological target: TPP-1989 (hTNFRSF12Aaa28-80-H60K-hIgG1-Fc) (human); assay: as above
Procedure: as §2, §3

[17] = biological target: TPP-1988 (hTNFRSF12Aaa28-80-M50A-hIgG1-Fc) (human); assay: as above
Procedure: as §2, §3

[18] = biological target: T5, TPP-2203 (TWEAKR-ECD-34-68-hIgGFc-His) (human); assay: ELISA, TPP-2203 coated at 1 µg/ml, biotinylated IgG at 0.08 µg/ml (open bar) and 0.3 µg/ml (filled bar), Streptavidin-HRP, Amplex Red
T5 construct: dimeric; also called TWEAKR(34-68)-Fc fusion protein; truncated ectodomain 34-68
Procedure: (§4) Detection was done with Streptavidin-HRP and Amplex-Red substrate.
(§5) To analyze for binding, 1 μg/ml of the respective dimeric TWEAKR-Fc construct were coated and, 0.3 μg/ml and 0.08 μg/ml of biotinylated IgG were used as soluble binding partner. Detection was done with Streptavidin-HRP and Amplex-Red substrate.

[19] = biological target: T6, TPP-2202 (TWEAKR-ECD-28-80-hIgGFc-His) (human); assay: ELISA, TPP-2202 coated at 1 µg/ml, biotinylated IgG at 0.08 µg/ml (open bar) and 0.3 µg/ml (filled bar), Streptavidin-HRP, Amplex Red
T6 construct: dimeric; also called TWEAKR-Fc fusion protein; full ectodomain 28-80
Procedure: as §4, §5

[20] = biological target: TPP-2683 (hTNFRSF12Aaa28-80-R56P-hIgG1-Fc) (human); assay: ELISA, TWEAKR-Fc coated 62 ng/ml, biotin-IgG titrated; + means IC50 1 to 150 pM;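 further: biotinylated IgG binding to immobilized TWEAKR-Fc muteins, detected with Streptavidin-HRP and Amplex Red, IC50 derived from fitted dose-response curves of twofold serial dilutions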
Procedure: as §2, §3

T6 sequence (chain, as listed by the source limits assumed): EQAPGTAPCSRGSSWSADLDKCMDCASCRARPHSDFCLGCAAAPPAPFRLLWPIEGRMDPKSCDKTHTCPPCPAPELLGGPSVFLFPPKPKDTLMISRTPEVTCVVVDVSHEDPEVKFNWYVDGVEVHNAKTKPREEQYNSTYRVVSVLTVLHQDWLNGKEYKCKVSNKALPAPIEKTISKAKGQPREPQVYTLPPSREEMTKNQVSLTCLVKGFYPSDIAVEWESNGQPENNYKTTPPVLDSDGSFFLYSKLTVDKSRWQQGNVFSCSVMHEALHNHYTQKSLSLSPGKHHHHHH

B1: TPP-1853 (antibody, human IgG1, kappa, V domains shown)
VH: EVQLLESGGGLVQPGGSLRLSCAASGFTFSPYPMMWVRQAPGKGLEWVSYISPSGGKTHYADSVKGRFTISRDNSKNTLYLQMNSLRAEDTAVYYCARGGDTYFDYFDYWGQGTLVTVSS
VL: DIQMTQSPATLSASVGDRVTITCRASQSISSYLNWYQQKPGKAPKLLIYNASSLQSGVPSRFSGSGSGTDFTLTISSLQPEDFATYYCQQSYTSPGITFGPGTKVEIKR
notes: Human IgG1
% binding normalized by wt binding signal [1]: < 5%
Fold induction of Caspase 3/7, 786-O cells, 100 ug/ml [2]: 1.88 fold
Fold induction of Caspase 3/7, HT-29 cells, 100 ug/ml [2]: 2.53 fold
Fold induction of Caspase 3/7, NCI-H322 cells, 100 ug/ml [2]: 1.94 fold

B2: TPP-2093 (antibody, human IgG1, kappa, V domains shown)
VH: B1 VH with K57S
VL: B1 VL with A9S, T10S, N50Q, G96F, P101Q
notes: Human IgG1
GeoMean of Fluorescence minus GeoMean with the secondary antibody only [3]: 875
GeoMean of Fluorescence minus GeoMean with the secondary antibody only [4]: 2180
GeoMean of Fluorescence minus GeoMean with the secondary antibody only [5]: 18200
% binding normalized by wt binding signal [1]: < 5%
Kd [6]: 22.1 nM
koff [6]: 0.09 s⁻¹
kon [6]: 4.1e+06 M⁻¹ s⁻¹
GeoMean of Fluorescence minus GeoMean with the secondary antibody only [7]: 255
% Inhibition of proliferation, A253 cells, 72h, 100 ug/ml [8]: > 100%
% Inhibition of proliferation, HT-29 cells, 24h, 100 ug/ml [8]: > 100%
Fold induction of Caspase 3/7, 786-O cells, 100 ug/ml [2]: 1.43 fold
Fold induction of Caspase 3/7, HT-29 cells, 100 ug/ml [2]: 2.54 fold
GeoMean of Fluorescence minus GeoMean with the secondary antibody only [9]: 160
GeoMean of Fluorescence minus GeoMean with the secondary antibody only [10]: 1720

B3: TPP-2148 (antibody, human IgG1, kappa, V domains shown)
VH: B1 VH
VL: B1 VL with N50Q, G96F
notes: Human IgG1
% binding normalized by wt binding signal [1]: < 5%
Kd [6]: 24.5 nM
koff [6]: 0.13 s⁻¹
kon [6]: 5.1e+06 M⁻¹ s⁻¹

B4: TPP-883 (antibody, human IgG1, kappa, V domains shown)
VH: B1 VH with T102G
VL: B1 VL with N50A, T93S
notes: Human IgG1; parent antibody from the phage library
% binding normalized by wt binding signal [1]: < 5%
Kd [6]: 206 nM
koff [6]: 0.91 s⁻¹
kon [6]: 4.4e+06 M⁻¹ s⁻¹

B5: TPP-1858 (antibody, human IgG1, kappa, V domains shown)
VH: B1 VH
VL: B1 VL with G96F
notes: Human IgG1
% binding normalized by wt binding signal [1]: < 5%
Fold induction of Caspase 3/7, 786-O cells, 100 ug/ml [2]: 2.22 fold
Fold induction of Caspase 3/7, HT-29 cells, 100 ug/ml [2]: 2.41 fold
Fold induction of Caspase 3/7, NCI-H322 cells, 100 ug/ml [2]: 2.01 fold

B6: TPP-1854 (antibody, human IgG1, kappa, V domains shown)
VH: B1 VH with M35I
VL: B1 VL with S31G, G96F
notes: Human IgG1
% binding normalized by wt binding signal [1]: < 5%
IL-8 release from A375 cells at 100 ug/ml, % of the activation by 300 ng/ml TWEAK ligand [11]: 129%
Fold induction of Caspase 3/7, 786-O cells, 100 ug/ml [2]: 2.11 fold
Fold induction of Caspase 3/7, HT-29 cells, 100 ug/ml [2]: 2.7 fold
Fold induction of Caspase 3/7, NCI-H322 cells, 100 ug/ml [2]: 1.98 fold

B7: TPP-2149 (antibody, human IgG1, kappa, V domains shown)
VH: B1 VH with M35I
VL: B1 VL with S31G, N50Q, G96F
notes: Human IgG1
% binding normalized by wt binding signal [1]: < 5%
Kd [6]: 12.1 nM
koff [6]: 0.1 s⁻¹
kon [6]: 8.4e+06 M⁻¹ s⁻¹

B8: TPP-1857 (antibody, human IgG1, kappa, V domains shown)
VH: B1 VH
VL: B1 VL with S31G
notes: Human IgG1
% binding normalized by wt binding signal [1]: < 5%
Fold induction of Caspase 3/7, 786-O cells, 100 ug/ml [2]: 1.76 fold
Fold induction of Caspase 3/7, HT-29 cells, 100 ug/ml [2]: 2.37 fold
Fold induction of Caspase 3/7, NCI-H322 cells, 100 ug/ml [2]: 1.89 fold

B9: 18.3.3(TPP-2193) (antibody, mouse IgG2a, kappa, V domains shown)
VH: EVKLGESGGGLVQPGGSMKLSCVASGFPFTKYWMNWVRQSPEKGLEWVAEIRLKSDNYATHYAESAKGRFTISRDDSRSSVYLQMNNLRAEDTAIYYCSPTYADTMDYWGQGTSVTVSS
VL: DIVLTQSPASLAVSLGQRATISCKASQSVSTSTYSYMQWYQQRPGQSPKLLIKYASKLDSGVPARFSGSGSGTDFTLNIHPVEEEDTATYYCQHSWELPYTFGGGTRLEIKR
notes: Murine IgG2a; variable domains from WO2009/020933 with constant region added
Kd [6]: 1.7 nM
koff [6]: 0.0285 s⁻¹
kon [6]: 1.64e+07 M⁻¹ s⁻¹
binding result [12]: binds
binding result [13]: binds
binding result [14]: binds
binding result [15]: binds
binding result [16]: binds
binding result [17]: binds

B10: P3G5(TPP-2195) (antibody, mouse IgG2a, kappa, V domains shown)
VH: QVQLQQSGPEVVRPGVSVKISCKGSGYTFTDYGIHWVKQSHAKSLEWIGVISTYNGYTNYNQKFKGKATMTVDKSSSTAYMELARLTSEDSAIYYCARAYYGNLYYAMDYWGQGTSVTVSS
VL: DIVLTQSPASLAVSLGQRATISCRANKSVSTSSYSYMHWYQQKPGQPPKLLIKYASNLESGVPARFSGSGSGTDFILNIHPVEEEDAATYYCQHSRELPFTFGSGTKLEIKR
notes: Murine IgG2a; variable domains from WO2009/140177 with constant region added
Kd [6]: 0.5 nM
koff [6]: 0.00122 s⁻¹
kon [6]: 2.31e+06 M⁻¹ s⁻¹
binding result [18]: binds
binding result [19]: binds
binding result [12]: binds
binding result [13]: binds
binding result [14]: binds
binding result [15]: binds
binding result [16]: binds
binding result [20]: binds
binding result [17]: binds

B11: ITEM-4 (antibody, V domains shown)
VH: QVQLQQSGPELVKPGASVKMSCKASGYTFTDFIIAWVKQRTGQGLEWIGEIYPGTGRTYYSEKFRGKATLTADKSSNTAYMQLSSLTSVDSAVYFCARRTIYYDYDGDYWGQGTTLTVSS
VL: DIVMTQAAFSNPVTLGTSASISCRSSKSLLHSNGITYLYWYLQKPGQSPQLLIYQMSNLASGVPDRFSSSGSGTDFTLRISRVEAEDVGVYYCAHNLELPWTFGGGTKLELK
Kd [6]: 0.7 nM
